Values quoted from earlier work, collected in article PMC10348426.
Where two headings read alike, the source gives them in different places. One block for each substance: values may come before it.

Assays:
[1] = target: ER ECD (Arabidopsis thaliana) (UniProt Q42371)
[2] = target: FER ECD (Arabidopsis thaliana) (UniProt Q9SCZ4); test: MST
[3] = target: ER ECD (Arabidopsis thaliana) (UniProt Q42371); remark: listed apart in the source

UniProt Q42371, sequence (Q42371 25-580): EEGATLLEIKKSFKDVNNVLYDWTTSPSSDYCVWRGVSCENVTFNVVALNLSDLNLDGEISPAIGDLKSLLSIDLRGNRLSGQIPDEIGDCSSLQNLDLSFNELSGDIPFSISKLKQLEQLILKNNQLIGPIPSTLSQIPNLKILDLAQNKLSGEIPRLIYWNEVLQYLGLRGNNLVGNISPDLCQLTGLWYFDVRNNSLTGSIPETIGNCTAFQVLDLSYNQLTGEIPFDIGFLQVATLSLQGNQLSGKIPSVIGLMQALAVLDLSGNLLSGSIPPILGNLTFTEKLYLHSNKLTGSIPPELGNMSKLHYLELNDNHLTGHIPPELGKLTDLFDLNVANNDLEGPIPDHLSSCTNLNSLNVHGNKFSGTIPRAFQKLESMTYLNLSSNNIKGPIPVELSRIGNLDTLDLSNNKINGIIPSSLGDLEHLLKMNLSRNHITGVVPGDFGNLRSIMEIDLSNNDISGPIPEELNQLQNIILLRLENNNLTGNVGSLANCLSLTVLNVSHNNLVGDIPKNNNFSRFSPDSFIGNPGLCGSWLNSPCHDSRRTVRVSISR
UniProt Q9SCZ4, sequence (Q9SCZ4 28-447): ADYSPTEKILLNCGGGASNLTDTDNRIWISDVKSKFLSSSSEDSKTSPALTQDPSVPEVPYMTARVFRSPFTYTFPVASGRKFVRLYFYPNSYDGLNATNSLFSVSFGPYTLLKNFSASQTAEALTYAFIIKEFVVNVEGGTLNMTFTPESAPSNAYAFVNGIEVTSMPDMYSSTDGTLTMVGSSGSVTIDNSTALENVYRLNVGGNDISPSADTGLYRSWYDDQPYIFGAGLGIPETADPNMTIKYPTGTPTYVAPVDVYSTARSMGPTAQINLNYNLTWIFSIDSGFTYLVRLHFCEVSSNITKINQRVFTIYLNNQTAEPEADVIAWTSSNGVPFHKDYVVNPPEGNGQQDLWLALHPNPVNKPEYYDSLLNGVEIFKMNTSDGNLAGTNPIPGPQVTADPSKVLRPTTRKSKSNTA

Kd [1]: 59 nM
Substance: EPF2 (from UniProt Q8LC53)

Kd [2]: 160 nM
Substance: RALF33 (from UniProt Q8L9P8)

Kd [3]: 44 nM
Substance: STOMAGEN (from UniProt Q9SV72)
